Laboratory results from patent US20240182536A1 (MURAL ONCOLOGY, published 2024).
Read-outs that look alike come from different tables or passages of the source.

T1: human IL-18 binding protein (human, UniProt O95998 31-194)
T1 sequence (looked up): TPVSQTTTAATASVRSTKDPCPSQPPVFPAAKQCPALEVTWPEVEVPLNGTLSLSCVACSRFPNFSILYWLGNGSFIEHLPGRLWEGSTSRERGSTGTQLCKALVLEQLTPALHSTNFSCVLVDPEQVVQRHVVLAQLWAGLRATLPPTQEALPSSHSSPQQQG

T2: IL-18 receptors on HEK-Blue IL-18 reporter cells (UniProt Q13478 19-541; O95256 20-599, limits assumed)
T2 sequence (looked up) 1: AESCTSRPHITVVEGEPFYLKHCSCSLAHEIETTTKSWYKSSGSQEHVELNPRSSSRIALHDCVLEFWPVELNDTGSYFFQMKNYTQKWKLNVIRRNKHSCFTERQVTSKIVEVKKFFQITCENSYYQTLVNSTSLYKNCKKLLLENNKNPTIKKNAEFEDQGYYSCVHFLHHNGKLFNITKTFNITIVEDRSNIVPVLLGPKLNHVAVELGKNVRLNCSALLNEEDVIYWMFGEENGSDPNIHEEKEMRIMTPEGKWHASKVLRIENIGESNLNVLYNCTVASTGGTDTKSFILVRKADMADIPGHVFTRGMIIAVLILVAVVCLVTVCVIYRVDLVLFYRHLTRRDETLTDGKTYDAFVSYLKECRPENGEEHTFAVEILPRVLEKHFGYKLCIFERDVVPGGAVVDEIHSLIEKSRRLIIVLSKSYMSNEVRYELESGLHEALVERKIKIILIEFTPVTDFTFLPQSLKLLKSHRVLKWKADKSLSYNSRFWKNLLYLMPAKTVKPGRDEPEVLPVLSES
T2 sequence (looked up) 2: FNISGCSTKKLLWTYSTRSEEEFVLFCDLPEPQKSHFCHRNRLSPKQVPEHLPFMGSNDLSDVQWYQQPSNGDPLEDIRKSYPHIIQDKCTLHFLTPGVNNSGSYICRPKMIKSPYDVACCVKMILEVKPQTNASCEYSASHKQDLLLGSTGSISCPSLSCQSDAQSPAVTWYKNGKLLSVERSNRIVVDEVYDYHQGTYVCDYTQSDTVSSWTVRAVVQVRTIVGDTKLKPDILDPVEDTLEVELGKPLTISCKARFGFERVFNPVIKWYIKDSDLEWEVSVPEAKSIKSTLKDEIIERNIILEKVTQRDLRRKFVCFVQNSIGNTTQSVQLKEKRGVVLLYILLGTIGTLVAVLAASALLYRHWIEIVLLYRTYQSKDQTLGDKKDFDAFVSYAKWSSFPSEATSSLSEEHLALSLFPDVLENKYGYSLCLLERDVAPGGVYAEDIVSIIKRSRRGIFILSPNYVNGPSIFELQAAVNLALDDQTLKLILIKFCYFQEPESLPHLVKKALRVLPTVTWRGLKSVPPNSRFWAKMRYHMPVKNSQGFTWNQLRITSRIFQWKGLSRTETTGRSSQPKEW

T3: interleukin 18 binding protein (IL-18BP) (UniProt O95998 31-194)
T3 sequence (looked up): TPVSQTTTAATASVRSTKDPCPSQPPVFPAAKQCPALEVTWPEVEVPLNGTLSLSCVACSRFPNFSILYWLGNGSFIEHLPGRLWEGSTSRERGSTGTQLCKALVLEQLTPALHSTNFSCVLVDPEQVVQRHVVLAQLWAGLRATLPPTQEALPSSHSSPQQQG

T4: IL-18 receptors on HEK-Blue IL-18 reporter cells (UniProt Q13478 19-541; O95256 20-599, limits assumed)
T4 sequence (looked up) 1: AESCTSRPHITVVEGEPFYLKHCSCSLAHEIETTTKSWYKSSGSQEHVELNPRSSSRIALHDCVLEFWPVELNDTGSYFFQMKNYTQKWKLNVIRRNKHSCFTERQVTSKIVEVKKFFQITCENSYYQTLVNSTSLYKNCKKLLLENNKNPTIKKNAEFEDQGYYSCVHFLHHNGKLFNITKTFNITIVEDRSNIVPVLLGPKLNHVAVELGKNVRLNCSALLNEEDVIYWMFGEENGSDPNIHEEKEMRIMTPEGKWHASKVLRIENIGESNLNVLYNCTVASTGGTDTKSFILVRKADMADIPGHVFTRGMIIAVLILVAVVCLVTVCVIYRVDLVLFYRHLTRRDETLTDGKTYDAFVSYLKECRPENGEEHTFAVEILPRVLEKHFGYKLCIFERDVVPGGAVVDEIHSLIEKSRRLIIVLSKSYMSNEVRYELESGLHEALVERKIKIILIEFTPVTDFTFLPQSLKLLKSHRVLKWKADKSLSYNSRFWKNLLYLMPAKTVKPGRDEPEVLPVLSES
T4 sequence (looked up) 2: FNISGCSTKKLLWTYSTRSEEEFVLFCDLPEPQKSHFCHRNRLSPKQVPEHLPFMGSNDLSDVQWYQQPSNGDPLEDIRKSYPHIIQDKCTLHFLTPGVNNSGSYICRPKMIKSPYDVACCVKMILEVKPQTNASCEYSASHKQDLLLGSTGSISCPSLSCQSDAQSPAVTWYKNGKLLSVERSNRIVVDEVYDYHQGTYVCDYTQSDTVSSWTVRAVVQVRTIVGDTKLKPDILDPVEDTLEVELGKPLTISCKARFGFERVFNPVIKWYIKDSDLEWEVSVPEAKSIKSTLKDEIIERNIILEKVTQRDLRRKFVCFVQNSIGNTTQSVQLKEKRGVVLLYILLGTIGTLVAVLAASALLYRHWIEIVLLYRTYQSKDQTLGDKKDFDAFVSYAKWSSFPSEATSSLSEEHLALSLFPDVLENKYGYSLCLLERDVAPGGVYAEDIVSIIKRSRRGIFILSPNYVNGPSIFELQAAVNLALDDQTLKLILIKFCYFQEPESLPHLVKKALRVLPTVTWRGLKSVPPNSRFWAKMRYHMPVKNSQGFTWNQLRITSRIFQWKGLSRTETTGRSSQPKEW


Key:
Experiment in all cases: cell-based or functional assay
[1] = biological target: T1, human IL-18 binding protein
[2] = biological target: T2, IL-18 receptors on HEK-Blue IL-18 …
[3] = biological target: T3, interleukin 18 binding protein (IL-18BP)
[4] = biological target: T4, IL-18 receptors on HEK-Blue IL-18 …; remark: listed apart in the source

Binder | HEK-Blue activity, +100 nM BP, DF-10000 [1] | HEK-Blue activity, +100 nM BP, DF-100,000 [1] | HEK-Blue activity, +100 nM BP, DF-1,000,000 [1] | Ratio (-BP/+BP), DF-10000 [1] | Ratio (-BP/+BP), DF-100,000 [1] | Ratio (-BP/+BP), DF-1,000,000 [1] | HEK-Blue activity, No BP, DF-10000 [2] | HEK-Blue activity, No BP, DF-100,000 [2] | HEK-Blue activity, No BP, DF-1,000,000 [2] | HEK-Blue activity, +100 nM BP, DF-10000 [3] | HEK-Blue activity, +100 nM BP, DF-100,000 [3] | HEK-Blue activity, +100 nM BP, DF-1,000,000 [3] | Ratio (-BP/+BP), DF-10000 [3] | Ratio (-BP/+BP), DF-100,000 [3] | Ratio (-BP/+BP), DF-1,000,000 [3] | HEK-Blue activity, No BP, DF-10000 [4] | HEK-Blue activity, No BP, DF-100,000 [4] | HEK-Blue activity, No BP, DF-1,000,000 [4]
yeast display IL-18 variant S36E, D37E, D40K, N41T, K53T, S55Q, R104H (ligand) YFGKLESKLSVIRNLNDQVLFIDQGNRPLFEDMTDEEMRKTAPRTIFIISMYTDQQPRGMAVTISVKSEKISTLSSENKIISFKEMNPPDNIKDTKSDIIFFQHSVPGHDNKMQFESSSYEGYFLASEKERDLFKLILKKEDELGDRSIMFTVQNED | 0.81 | 0.21 | 0.14 | 1 | 1.01 | 1.22 | 0.81 | 0.22 | 0.17 |  |  |  |  |  |  |  |  | 
yeast display IL-18 variant K53S, S55Y (ligand) YFGKLESKLSVIRNLNDQVLFIDQGNRPLFEDMTDSDMRDNAPRTIFIISMYSDYQPRGMAVTISVKSEKISTLSSENKIISFKEMNPPDNIKDTKSDIIFFQRSVPGHDNKMQFESSSYEGYFLASEKERDLFKLILKKEDELGDRSIMFTVQNED | 1.52 | 0.55 | 0.21 | 0.93 | 0.97 | 0.9 | 1.41 | 0.54 | 0.19 |  |  |  |  |  |  |  |  | 
IL-18 variant T34N, S36N, D40E, N41G, K53S, S55Q, R104N, H109Y (ligand) YFGKLESKLSVIRNLNDQVLFIDQGNRPLFEDMNDNDMREGAPRTIFIISMYSDQQPRGMAVTISVKSEKISTLSSENKIISFKEMNPPDNIKDTKSDIIFFQNSVPGYDNKMQFESSSYEGYFLASEKERDLFKLILKKEDELGDRSIMFTVQNED |  |  |  |  |  |  |  |  |  | 0.09 | 0.09 | 0.09 | 0.95 | 1.01 | 0.95 | 0.09 | 0.09 | 0.08
yeast display IL-18 variant K53T, S55P (ligand) YFGKLESKLSVIRNLNDQVLFIDQGNRPLFEDMTDSDMRDNAPRTIFIISMYTDPQPRGMAVTISVKSEKISTLSSENKIISFKEMNPPDNIKDTKSDIIFFQRSVPGHDNKMQFESSSYEGYFLASEKERDLFKLILKKEDELGDRSIMFTVQNED | 1.53 | 0.65 | 0.21 | 0.93 | 0.91 | 0.79 | 1.42 | 0.59 | 0.16 |  |  |  |  |  |  |  |  | 
yeast display IL-18 variant K53T, S55M, R58K (ligand) YFGKLESKLSVIRNLNDQVLFIDQGNRPLFEDMTDSDMRDNAPRTIFIISMYTDMQPKGMAVTISVKSEKISTLSSENKIISFKEMNPPDNIKDTKSDIIFFQRSVPGHDNKMQFESSSYEGYFLASEKERDLFKLILKKEDELGDRSIMFTVQNED | 0.72 | 0.21 | 0.17 | 1.08 | 0.92 | 0.72 | 0.78 | 0.2 | 0.12 |  |  |  |  |  |  |  |  | 
